Experimental data taken from IntAct's records for PubMed 35512704.

B1: Speckle-type POZ protein (Homo sapiens), O43791 (parent)
chain: MSRVPSPPPPAEMSSGPVAESWCYTQIKVVKFSYMWTINNFSFCREEMGEVIKSSTFSSGANDKLKWCLRVNPKGLDEESKDYLSLYLLLVSCPKSEVRAKFKFSILNAKGEETKAMESQRAYRFVQGKDWGFKKFIRRDFLLDEANGLLPDDKLTLFCEVSVVQDSVNISGQNTMNMVKVPECRLADELGGLWENSRFTDCCLCVAGQEFQAHKAILAARSPVFSAMFEHEMEESKKNRVEINDVEPEVFKEMMCFIYTGKAPNLDKMADDLLAAADKYALERLKVMCEDALCSNLSVENAAEILILADLHSADQLKTQAVDFINYHASDVLETSGWKSMVVSHPHLVAEAYRSLASAQCPFLGPPRKRLKQS

Variants of: B1
Conditions: with brd4_human BRD4, O60885

Variant | effect of a mutation on the interaction
MSRVPSPPPPAEMSSGPVAESWCYTQIKVVKFSYMWTINNFSFCREEMGEVIKSSTFSSGANDKLKWCLRVNPKGLDEESKDYLSLYLLLVSCPKSEVRAKFKFSILNAKGEETKAMESQRAYRFVQGKDWGVKKFIRRDFLLDEANGLLPDDKLTLFCEVSVVQDSVNISGQNTMNMVKVPECRLADELGGLWENSRFTDCCLCVAGQEFQAHKAILAARSPVFSAMFEHEMEESKKNRVEINDVEPEVFKEMMCFIYTGKAPNLDKMADDLLAAADKYALERLKVMCEDALCSNLSVENAAEILILADLHSADQLKTQAVDFINYHASDVLETSGWKSMVVSHPHLVAEAYRSLASAQCPFLGPPRKRLKQS [F133V] | disrupting interaction strength

Variants of: B1
Conditions: with ncoa3_human NCOA3, Q9Y6Q9

Variant | effect of a mutation on the interaction
MSRVPSPPPPAEMSSGPVAESWCYTQIKVVKFSYMWTINNFSFCREEMGEVIKSSTFSSGANDKLKWCLRVNPKGLDEESKDYLSLYLLLVSCPKSEVRAKFKFSILNAKGEETKAMESQRAYRFVQGKDWGVKKFIRRDFLLDEANGLLPDDKLTLFCEVSVVQDSVNISGQNTMNMVKVPECRLADELGGLWENSRFTDCCLCVAGQEFQAHKAILAARSPVFSAMFEHEMEESKKNRVEINDVEPEVFKEMMCFIYTGKAPNLDKMADDLLAAADKYALERLKVMCEDALCSNLSVENAAEILILADLHSADQLKTQAVDFINYHASDVLETSGWKSMVVSHPHLVAEAYRSLASAQCPFLGPPRKRLKQS [F133V] | disrupting interaction strength

Variants of: B1
Conditions: with jun_human JUN

Variant | effect of a mutation on the interaction
MSRVPSPPPPAEMSSGPVAESWCYTQIKVVKFSYMWTINNFSFCREEMGEVIKSSTFSSGANDKLKWCLRVNPKGLDEESKDYLSLYLLLVSCPKSEVRAKFKFSILNAKGEETKAMESQRAYRFVQGKDWGVKKFIRRDFLLDEANGLLPDDKLTLFCEVSVVQDSVNISGQNTMNMVKVPECRLADELGGLWENSRFTDCCLCVAGQEFQAHKAILAARSPVFSAMFEHEMEESKKNRVEINDVEPEVFKEMMCFIYTGKAPNLDKMADDLLAAADKYALERLKVMCEDALCSNLSVENAAEILILADLHSADQLKTQAVDFINYHASDVLETSGWKSMVVSHPHLVAEAYRSLASAQCPFLGPPRKRLKQS [F133V] | with no effect

Variants of: B1
Conditions: with akt1_human AKT1, P31749

Variant | effect of a mutation on the interaction
MSRVPSPPPPAEMSSGPVAESWCYTQIKVVKFSYMWTINNFSFCREEMGEVIKSSTFSSGANDKLKWCLRVNPKGLDEESKDYLSLYLLLVSCPKSEVRAKFKFSILNAKGEETKAMESQRAYRFVQGKDWGVKKFIRRDFLLDEANGLLPDDKLTLFCEVSVVQDSVNISGQNTMNMVKVPECRLADELGGLWENSRFTDCCLCVAGQEFQAHKAILAARSPVFSAMFEHEMEESKKNRVEINDVEPEVFKEMMCFIYTGKAPNLDKMADDLLAAADKYALERLKVMCEDALCSNLSVENAAEILILADLHSADQLKTQAVDFINYHASDVLETSGWKSMVVSHPHLVAEAYRSLASAQCPFLGPPRKRLKQS [F133V] | with no effect

Variants of: B1
Conditions: with alk_human ALK

Variant | effect of a mutation on the interaction
MSRVPSPPPPAEMSSGPVAESWCYTQIKVVKFSYMWTINNFSFCREEMGEVIKSSTFSSGANDKLKWCLRVNPKGLDEESKDYLSLYLLLVSCPKSEVRAKFKFSILNAKGEETKAMESQRAYRFVQGKDWGVKKFIRRDFLLDEANGLLPDDKLTLFCEVSVVQDSVNISGQNTMNMVKVPECRLADELGGLWENSRFTDCCLCVAGQEFQAHKAILAARSPVFSAMFEHEMEESKKNRVEINDVEPEVFKEMMCFIYTGKAPNLDKMADDLLAAADKYALERLKVMCEDALCSNLSVENAAEILILADLHSADQLKTQAVDFINYHASDVLETSGWKSMVVSHPHLVAEAYRSLASAQCPFLGPPRKRLKQS [F133V] | with no effect

Variants of: B1
Conditions: with aph1a_human APH1A

Variant | effect of a mutation on the interaction
MSRVPSPPPPAEMSSGPVAESWCYTQIKVVKFSYMWTINNFSFCREEMGEVIKSSTFSSGANDKLKWCLRVNPKGLDEESKDYLSLYLLLVSCPKSEVRAKFKFSILNAKGEETKAMESQRAYRFVQGKDWGVKKFIRRDFLLDEANGLLPDDKLTLFCEVSVVQDSVNISGQNTMNMVKVPECRLADELGGLWENSRFTDCCLCVAGQEFQAHKAILAARSPVFSAMFEHEMEESKKNRVEINDVEPEVFKEMMCFIYTGKAPNLDKMADDLLAAADKYALERLKVMCEDALCSNLSVENAAEILILADLHSADQLKTQAVDFINYHASDVLETSGWKSMVVSHPHLVAEAYRSLASAQCPFLGPPRKRLKQS [F133V] | with no effect

Variants of: B1
Conditions: with arnt_human ARNT

Variant | effect of a mutation on the interaction
MSRVPSPPPPAEMSSGPVAESWCYTQIKVVKFSYMWTINNFSFCREEMGEVIKSSTFSSGANDKLKWCLRVNPKGLDEESKDYLSLYLLLVSCPKSEVRAKFKFSILNAKGEETKAMESQRAYRFVQGKDWGVKKFIRRDFLLDEANGLLPDDKLTLFCEVSVVQDSVNISGQNTMNMVKVPECRLADELGGLWENSRFTDCCLCVAGQEFQAHKAILAARSPVFSAMFEHEMEESKKNRVEINDVEPEVFKEMMCFIYTGKAPNLDKMADDLLAAADKYALERLKVMCEDALCSNLSVENAAEILILADLHSADQLKTQAVDFINYHASDVLETSGWKSMVVSHPHLVAEAYRSLASAQCPFLGPPRKRLKQS [F133V] | with no effect

Variants of: B1
Conditions: with asxl2_human ASXL2, Q76L83

Variant | effect of a mutation on the interaction
MSRVPSPPPPAEMSSGPVAESWCYTQIKVVKFSYMWTINNFSFCREEMGEVIKSSTFSSGANDKLKWCLRVNPKGLDEESKDYLSLYLLLVSCPKSEVRAKFKFSILNAKGEETKAMESQRAYRFVQGKDWGVKKFIRRDFLLDEANGLLPDDKLTLFCEVSVVQDSVNISGQNTMNMVKVPECRLADELGGLWENSRFTDCCLCVAGQEFQAHKAILAARSPVFSAMFEHEMEESKKNRVEINDVEPEVFKEMMCFIYTGKAPNLDKMADDLLAAADKYALERLKVMCEDALCSNLSVENAAEILILADLHSADQLKTQAVDFINYHASDVLETSGWKSMVVSHPHLVAEAYRSLASAQCPFLGPPRKRLKQS [F133V] | with no effect

Variants of: B1
Conditions: with bakor_human ATG14, Q6ZNE5

Variant | effect of a mutation on the interaction
MSRVPSPPPPAEMSSGPVAESWCYTQIKVVKFSYMWTINNFSFCREEMGEVIKSSTFSSGANDKLKWCLRVNPKGLDEESKDYLSLYLLLVSCPKSEVRAKFKFSILNAKGEETKAMESQRAYRFVQGKDWGVKKFIRRDFLLDEANGLLPDDKLTLFCEVSVVQDSVNISGQNTMNMVKVPECRLADELGGLWENSRFTDCCLCVAGQEFQAHKAILAARSPVFSAMFEHEMEESKKNRVEINDVEPEVFKEMMCFIYTGKAPNLDKMADDLLAAADKYALERLKVMCEDALCSNLSVENAAEILILADLHSADQLKTQAVDFINYHASDVLETSGWKSMVVSHPHLVAEAYRSLASAQCPFLGPPRKRLKQS [F133V] | with no effect

Variants of: B1
Conditions: with atm_human ATM

Variant | effect of a mutation on the interaction
MSRVPSPPPPAEMSSGPVAESWCYTQIKVVKFSYMWTINNFSFCREEMGEVIKSSTFSSGANDKLKWCLRVNPKGLDEESKDYLSLYLLLVSCPKSEVRAKFKFSILNAKGEETKAMESQRAYRFVQGKDWGVKKFIRRDFLLDEANGLLPDDKLTLFCEVSVVQDSVNISGQNTMNMVKVPECRLADELGGLWENSRFTDCCLCVAGQEFQAHKAILAARSPVFSAMFEHEMEESKKNRVEINDVEPEVFKEMMCFIYTGKAPNLDKMADDLLAAADKYALERLKVMCEDALCSNLSVENAAEILILADLHSADQLKTQAVDFINYHASDVLETSGWKSMVVSHPHLVAEAYRSLASAQCPFLGPPRKRLKQS [F133V] | with no effect

Variants of: B1
Conditions: with atpb_human ATP5F1B

Variant | effect of a mutation on the interaction
MSRVPSPPPPAEMSSGPVAESWCYTQIKVVKFSYMWTINNFSFCREEMGEVIKSSTFSSGANDKLKWCLRVNPKGLDEESKDYLSLYLLLVSCPKSEVRAKFKFSILNAKGEETKAMESQRAYRFVQGKDWGVKKFIRRDFLLDEANGLLPDDKLTLFCEVSVVQDSVNISGQNTMNMVKVPECRLADELGGLWENSRFTDCCLCVAGQEFQAHKAILAARSPVFSAMFEHEMEESKKNRVEINDVEPEVFKEMMCFIYTGKAPNLDKMADDLLAAADKYALERLKVMCEDALCSNLSVENAAEILILADLHSADQLKTQAVDFINYHASDVLETSGWKSMVVSHPHLVAEAYRSLASAQCPFLGPPRKRLKQS [F133V] | with no effect

Variants of: B1
Conditions: with aurkb_human AURKB

Variant | effect of a mutation on the interaction
MSRVPSPPPPAEMSSGPVAESWCYTQIKVVKFSYMWTINNFSFCREEMGEVIKSSTFSSGANDKLKWCLRVNPKGLDEESKDYLSLYLLLVSCPKSEVRAKFKFSILNAKGEETKAMESQRAYRFVQGKDWGVKKFIRRDFLLDEANGLLPDDKLTLFCEVSVVQDSVNISGQNTMNMVKVPECRLADELGGLWENSRFTDCCLCVAGQEFQAHKAILAARSPVFSAMFEHEMEESKKNRVEINDVEPEVFKEMMCFIYTGKAPNLDKMADDLLAAADKYALERLKVMCEDALCSNLSVENAAEILILADLHSADQLKTQAVDFINYHASDVLETSGWKSMVVSHPHLVAEAYRSLASAQCPFLGPPRKRLKQS [F133V] | with no effect

Variants of: B1
Conditions: with axin2_human AXIN2, Q9Y2T1

Variant | effect of a mutation on the interaction
MSRVPSPPPPAEMSSGPVAESWCYTQIKVVKFSYMWTINNFSFCREEMGEVIKSSTFSSGANDKLKWCLRVNPKGLDEESKDYLSLYLLLVSCPKSEVRAKFKFSILNAKGEETKAMESQRAYRFVQGKDWGVKKFIRRDFLLDEANGLLPDDKLTLFCEVSVVQDSVNISGQNTMNMVKVPECRLADELGGLWENSRFTDCCLCVAGQEFQAHKAILAARSPVFSAMFEHEMEESKKNRVEINDVEPEVFKEMMCFIYTGKAPNLDKMADDLLAAADKYALERLKVMCEDALCSNLSVENAAEILILADLHSADQLKTQAVDFINYHASDVLETSGWKSMVVSHPHLVAEAYRSLASAQCPFLGPPRKRLKQS [F133V] | with no effect

Variants of: B1
Conditions: with ufo_human AXL

Variant | effect of a mutation on the interaction
MSRVPSPPPPAEMSSGPVAESWCYTQIKVVKFSYMWTINNFSFCREEMGEVIKSSTFSSGANDKLKWCLRVNPKGLDEESKDYLSLYLLLVSCPKSEVRAKFKFSILNAKGEETKAMESQRAYRFVQGKDWGVKKFIRRDFLLDEANGLLPDDKLTLFCEVSVVQDSVNISGQNTMNMVKVPECRLADELGGLWENSRFTDCCLCVAGQEFQAHKAILAARSPVFSAMFEHEMEESKKNRVEINDVEPEVFKEMMCFIYTGKAPNLDKMADDLLAAADKYALERLKVMCEDALCSNLSVENAAEILILADLHSADQLKTQAVDFINYHASDVLETSGWKSMVVSHPHLVAEAYRSLASAQCPFLGPPRKRLKQS [F133V] | with no effect

Variants of: B1
Conditions: with za2g_human AZGP1, P25311

Variant | effect of a mutation on the interaction
MSRVPSPPPPAEMSSGPVAESWCYTQIKVVKFSYMWTINNFSFCREEMGEVIKSSTFSSGANDKLKWCLRVNPKGLDEESKDYLSLYLLLVSCPKSEVRAKFKFSILNAKGEETKAMESQRAYRFVQGKDWGVKKFIRRDFLLDEANGLLPDDKLTLFCEVSVVQDSVNISGQNTMNMVKVPECRLADELGGLWENSRFTDCCLCVAGQEFQAHKAILAARSPVFSAMFEHEMEESKKNRVEINDVEPEVFKEMMCFIYTGKAPNLDKMADDLLAAADKYALERLKVMCEDALCSNLSVENAAEILILADLHSADQLKTQAVDFINYHASDVLETSGWKSMVVSHPHLVAEAYRSLASAQCPFLGPPRKRLKQS [F133V] | with no effect
